From patent US20240408183A1, “KYNURENINE AMINOTRANSFERASE AND PRODUCTS THEREOF FOR THE TREATMENT OF INFLAMMATORY BOWEL DISEASES” (Institut National De Recherche Pour L'Agriculture, …, priority 2021, published 2024)

Key:
[1] = system: mice submitted to DSS-induced colitis; assay: DSS-induced colitis model in mice; format: in vivo, mouse (C57BL/6JRj); conditions: purified AADAT intraperitoneally
Procedure: C57BL/6JRj from Janvier lab, 7 weeks old, were housed in our specific pathogen free animal facility at IERP (INRA, Jouy en Josas, France). Five to ten female mice per group were used in all experiment, were maintained in a temperature controlled (23° C.) facility with a strict 12 h light/dark cycles and were given free access to food and water. After one acclimation week, we changed water with DSS 2% (MP Biomedical) during 7 days (day 0 to day 7), and a
recovery period was practiced until day 12 (during 5 days). Body weight loss and DAI (disease activity index) were performed daily. After 12 days the samples were harvested.
Colon distal part (cut in three parts) was harvested at day 12 after DSS model and put directly in PFA (Rothi®—Histofix 4%) during 48 h and transferred in ethanol 70% until the standard pre-fixation automat and paraffin embedded. HES coloration was practiced on 5Im cut.
Data were analyzed using Prism version 7 (Graphpad Software, San Diego, USA). The non-parametric Mann Withney test or the parametric one-way ANOVA tests with multiple Bonferroni's comparison tests were performed. Values are expressed as mean±SEM. Statistical significance was defined at a p-value ****<0.0001, ***<0.001, **<0.01, *<0.05.

[2] = system: kynurenine (KYNU) and 3-hydroxykynurenin, substrates of AADAT; assay: AADAT activity test (disappearance of kynurenine/3-hydroxykynurenin; production of KYNA and XANA in vitro); format: biochemical; conditions: 15 min, KYNU 1000 μM, FIG. 4F
Procedure: KAT activity may be assessed by any method known by the skilled person. For instance, KAT activity could be assessed as described in the experimental section, i.e. an assay based on the disappearance of kynurenine and/or 3-hydroxykynurenin. Briefly, a reaction mixture (50 μL final volume) containing 10 mM L-kynurenine or 3-hydroxykynurenin, 2 mM α-oxoglutarate, 40 μM PLP (pyridoxal 5′-phosphate) and 0 or 1 μL of the protein to be tested prepared in buffer 100 mM potassium phosphate (pH 7.4), is incubated at 37° C. for 15 min. The reaction is stopped by the addition of an equal volume of 30% acetic acid. The supernatant of the reaction mixture, obtained by centrifugation at 3000 g for 10 min at 4° C., is mixed equally with Ehrlich's solution and incubated 15 min at room temperature to have a colorimetric reaction. In parallel, a standard range of kynurenine or 3-hydroxykynurenin from 0 μM to 1000 μM is made under the same conditions. The amount of kynurenine or 3-hydroxykynurenin present in the sample is measured with a spectrophotometer at an OD of 492 nm and calculated using the standard range. […]
The activity test is based on the disappearance of kynurenine and 3-hydroxykynurenin which are substrates of AADAT. […] The amount of kynurenine or 3-hydroxykynurenin present in the sample was measured with a spectrophotometer at an OD of 492 nm and calculated using the standard range (FIG. 4E).

[3] = 10, 1 and 0.1 μL per day and per mouse

B1: AADAT: recombinant murine Alpha-Aminoadipate AminoTransferase (SEQ ID NO:13) expressed in E. coli and purified by affinity chromatography (protein, listed as Mus musculus)
chain: MNYSRFLTATSLARKPSPIRTTADILSKAPKTLISLAPGSPNPSMFPFKSAAFTVENGSTIRFEDDLIKRALQYSPSYGIPELLSWLKQFQVKLHNPPTVNYPPNQGQMDLCITSGCQDGLCKAFEMLINPGDTILVNEPLFPGTLYAMKPLGCNIINVPSDEHGIIPEGLKKILSQWKPEDSKDPTKKTPKFLYTVPNGNNPTGNSLTGDRKKEIYELARKYDFLIIEDDPYYFLQFSKPWEPTFLSMDVDGRVIRADTFSKTVSSGLRVGFMTGPKTLIQNIVLHTQVSSVHACTLSQLMILQLLHQWGEEGFLAHIDRTIDFYKNQRDSILAAADKWLRGLAEWHVPKAGMFLWIKVKGISDTKQLIEEKAIEREVLLVPGNGFFIDGSAPTSFFRASFSLATPAQMDTAFQRLAQLIKESL
In the case of B1, the “protective effect at the two lower doses” value ([1]; 1 and 0.1 μL per day and per mouse) is reported as “protective effect is also seen”, the clinical score [1, 3] is reported as “protection, with a dose effect” and the histological score [1, 3] is reported as “protection, with a dose effect”. The weight loss [1, 3] was “protection, with a dose effect”, the colon length ([1]; 10, 1 and 0.1 μL per day and per mouse, day 12) was “protection, with a dose effect” and the “transformation of KYNU into KYNA and XANA” value [2] was “A dose effect can be observed”.
